Experimental data reported in patent publication US20220281973A1 (TRUEBINDING, published 2022).

T1: human LRIG1 extracellular domain fused to a linker-spaced 6-histidine tag, LRIG1-ECD-His (R&D systems, … (human, UniProt Q96JA1 35-794))
T1 construct: Bought protein; also called human LRIG1-His; hLRIG1-His; not shown: linker-spaced 6-histidine tag
T1 sequence: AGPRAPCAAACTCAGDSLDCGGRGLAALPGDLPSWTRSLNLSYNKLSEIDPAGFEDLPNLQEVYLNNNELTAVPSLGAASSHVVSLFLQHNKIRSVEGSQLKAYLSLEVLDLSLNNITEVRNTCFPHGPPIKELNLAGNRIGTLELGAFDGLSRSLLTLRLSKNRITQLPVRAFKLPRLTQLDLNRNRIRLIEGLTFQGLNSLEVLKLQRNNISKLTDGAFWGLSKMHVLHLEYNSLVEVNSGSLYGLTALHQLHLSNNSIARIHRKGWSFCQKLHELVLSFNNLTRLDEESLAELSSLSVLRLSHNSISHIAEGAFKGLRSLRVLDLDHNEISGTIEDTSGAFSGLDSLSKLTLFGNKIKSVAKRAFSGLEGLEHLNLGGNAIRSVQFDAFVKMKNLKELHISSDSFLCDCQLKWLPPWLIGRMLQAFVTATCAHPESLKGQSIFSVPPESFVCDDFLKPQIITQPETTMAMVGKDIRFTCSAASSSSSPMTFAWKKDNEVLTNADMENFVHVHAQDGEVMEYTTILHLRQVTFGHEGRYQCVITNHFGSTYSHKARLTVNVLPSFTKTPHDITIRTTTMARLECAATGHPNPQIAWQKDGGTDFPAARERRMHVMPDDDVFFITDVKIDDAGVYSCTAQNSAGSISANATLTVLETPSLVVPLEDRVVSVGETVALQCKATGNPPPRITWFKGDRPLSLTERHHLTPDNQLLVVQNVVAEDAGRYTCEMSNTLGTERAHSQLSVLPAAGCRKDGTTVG

T2: hLRIG1 Peptide 70 (human)
T2 construct: 20 amino acid peptide of the LRIG1 peptide library
T2 peptide: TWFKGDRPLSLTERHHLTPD

T3: hLRIG1 Peptide 71 (human)
T3 construct: 20 amino acid peptide of the LRIG1 peptide library
T3 peptide: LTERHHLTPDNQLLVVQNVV


Tests used:
[1] = molecular target: T1, human LRIG1 extracellular domain fused …; experiment: LRIG1 ECD ELISA-positive hybridoma antibodies tested in blocking ELISA on plate-bound LRIG1-ECD-His
Protocol: Positively scoring wells were evaluated for the ability to block association of LRIG1 and VISTA. To identify LRIG1-targeted antibodies with the ability to block the interaction of LRIG1 and VISTA, purified LRIG1 and VISTA proteins were incubated in the presence of LRIG1-immunization hybridoma supernatants described above, or without antibody, and protein interaction was evaluated by ELISA. Purified human LRIG1 extracellular domain fused to a HIS tag (R&D Systems) was diluted in phosphate buffered saline (PBS) (Corning) to a concentration of 3 μg/ml and 100 μl was added to each well of a 96-well ELISA plate (Thermo Fisher, 44-2404-21). After incubating the plate at 4° C. overnight, the plate was washed three times with 300 μl of PBS with 0.05% TWEEN (VWR) (PBST) per well. The plate was then blocked for an hour with 200 μl of 2% bovine serum albumin (BSA) (Sigma) in PBST per well at room temperature with gentle rocking. Thereafter, the 2% BSA in PBST was removed and 50 μl of hybridoma supernatant diluted to 3.3 ug/mL was added to the wells. The plate was incubated for 10 minutes at room temperature with gentle rocking. Afterwards, 100 ul of 50 nM oligomerized VISTA in 100 ul PBS buffer was added per well. VISTA oligomerization was performed by Klickmer formation. Briefly, 5 nM Klickmer (Immudex) was incubated with 200 nM hVISTA-Fc-Avi-Biotin in PBS and incubated for one hour. The plate was incubated for an hour at room temperature with gentle rocking. Thereafter, the plate was washed three times with 300 μl of PBST per well, and 100 μl of avidin-HRP (1:1000) (Jackson ImmunoResearch) was then added to each well and the plate was incubated at room temperature for 30 minutes with gentle rocking. Thereafter, the plate was washed three times with 300 μl of PBST per well. 100 μl of TMB substrate (Fisher Scientific, 34029) was then added to each well. The reaction was stopped with 50 μl of 1 M HCl (VWR) per well. The plate was read using a spectrophotometer (Molecular Devices) at absorbance of 450 nm. Percent blockade of LRIG1-VISTA interaction was calculated as the fraction of signal obtained in each experimental samples of the no antibody sample less background signal.

[2] = molecular target: T2, hLRIG1 Peptide 70; experiment: peptide ELISA of Example 2, as told in Example 3
Protocol: (§1) To identify the epitopes to which LRIG1 antibodies with and without VISTA-LRIG1 blocking activity bound, a library of 20 amino acid peptides representing portions of LRIG1 was produced, and the ability to bind LRIG1 antibodies was evaluated by ELISA. At least 2 ug/ml of hLRIG1 peptide in 50 μl of PBS or 0.1 ug/ml of full-length human LRIG1 protein (R&D Systems) in 100 μl of PBS was added to the wells of a 96-well ELISA plate (Thermo Fisher, 44-2404-21). After incubating the plate at 4° C. overnight, the plate was washed three times with 300 μl of PBST per well. The plate was then blocked for an hour with 200 μl of 2% BSA in PBST per well at room temperature with gentle rocking. Thereafter, the 2% BSA in PBST was removed and 100 μl of 0.1 ug/ml of antibody in 2% BSA in PBST was added to the wells. The plate was incubated for an hour at room temperature with gentle rocking and then washed three times with 300 μl of PBST per well. Afterwards, 100 μl of anti-mouse IgG-HRP (1:4000) (Jackson ImmunoResearch) or anti-rat IgG HRP (1:4000) (Jackson ImmunoResearch) was added to the wells. The plate was incubated for 30 minutes at room temperature with gentle rocking and then washed three times with 300 μl of PBST per well. 100 μl of TMB substrate (Fisher Scientific, 34029) was then added to each well. The reaction was stopped with 50 μl of 1 M HCl (VWR) per well. The plate was read using a plate reader (Molecular Devices) at absorbance of 450 nm, and signal greater than 0.25 OD was considered evidence of peptide binding.

[3] = molecular target: T3, hLRIG1 Peptide 71; experiment: peptide ELISA of Example 2, as told in Example 3
Protocol: as §1

binding result [1]	binding result [2]	binding result [3]	Binder
binds	–	–	802.4C12.3C5 (antibody, V domains shown, Mouse hybridoma monoclonal) VH: QVQLQQSGGELMKPGASVKLSCKATGYTFTGYWIEWVKQRPGHGLEWIGEILPGSGRTYYNEKFKGKATFTADTSSNTAYMQLSSLTTEDSAIYYCAREIYDGHYEAWYAYWGQGTLVTVSA VL: DVVMTQTPLSLSVTIGQPASISCKSSQSLLYSDGKTYLNWLQQRPGQSPKRLMYQVSKLDPGIPDRFSGSGSETDFTLEISRVEAEDLGVYYCLQGTYYPHTFGSGTKLEIK
binds	–	–	802.2F11.2B6 (antibody, V domains shown, Mouse hybridoma monoclonal) VH: QVQLQQSGAELMKPGASVKLSCKATGYTFTGYWIEWVKQRPGHGLEWIGEILPGSGSTHYNEKFKGKATFTADTSSNTAYIQLSSLTTEDSAIYYCEREVYDNDEGAWFANWGQGTLVTVSA VL: DVVMTQTPLSLSVTIGQPASISCKSSQSLLYSDGKTYLNWLQQRPGQSPKRLMYQVSKLDPGIPDRFSGSGSETDFTLKISRVEAEDLGVYYCLQGTYYPHTFGSGTKLEIK
binds	–	–	802.4B6.2F6 (antibody, V domains shown, Mouse hybridoma monoclonal) VH: QVQLQQSGPELVKPGASVKLSCKASGYTFTSYDINWVKQRPGQGLEWIGWIYPRDGTTKYNEKFKGKATLTVDTSSSTAYMEIHSLTSEDSAVYFCAREDYGSSFHNWGQGTTLTVSS VL: NIVMTQSPKSMSMSVGERVTLSCKASEDVDTYVSWYQQKPNQSPKLLIYGASNRYTGVPDRFTGSGSATDFTLTISSVQAEDLADYYCGQSYSYPWTFGGGTKLEIK
binds	–	–	802.3B10.2C10 (antibody, V domains shown, Mouse hybridoma monoclonal) VH: DVQLQESGPGLVKPSLSLSLTCTVTGYSITSGYDWHWIRHFPGNILEWMGYISYSGYTNYNPSLKSRISITHDTSKNHFFLKLNSVTTEDTATYYCARDSNWYFDVWGAGTTVTVSS VL: NIVMTQSPKSMSMLVGERVILNCKASENVDTYVSWYQQKPEQSPKLLIYGASNRYTGVPDRFTGSGSATDFTLTISSVQGEDLADYYCGQSHNYPYTFGSGTKLEIK
binds	–	–	802.2B7.2D9 (antibody, V domains shown, Mouse hybridoma monoclonal) VH: QVQLKQSGPGLVQPSQSLSITCTVSGFSLTSYGVHWVRQSPGKGLEYLGVIWSGGSTDYNAAFISRLSISKDNSKSQVFFKMNSLRADDTAIYYCARNWAYYSNHYYVMDYWGQGTSVTVSS VL: DIQMTQSPASLYAFVGETVTITCRASENIYSYLAWYHQKQGKSPQLLVYNSNSLAEGVPLRFSGSGSGTQFSLKINSLQPEDFGNYYCQHHYVTPLTFGGGTKLEMK
binds	–	–	802.2F4.2C7 (antibody, V domains shown, Mouse hybridoma monoclonal) VH: EVQLQQSGTVLARPGASVKMSCKASGYNFINSWMHWVKQRPGQGLEWIGAFYPGNSDTRYNQKFMGKAKLTAVTSASTAYMEVSSLTNEDSAVYYCTELGGDYWGQGTTLTVSS VL: DVVMTQTPLSLPVSLGDQASISCRSSQSLVHNDGNTYLHWFLQKPGQSPKLLIHKVSNRFSGVPDRFSGSGSGTDFTLKISRVEAEDLGVYFCSQSTHVPYTFGGGTKLEIK
binds	–	–	802.3E6.2F9 (antibody, V domains shown, Mouse hybridoma monoclonal) VH: QVQLQQSGAELMKPGASVKISCKVTGHTFSSYWIEWVKQRPGHGLEWIGEILPGKGNTEYNEKFKGKATFTADTSSNTAYMQLSSLTSEDSAVYYCARNFDVWGAGTTVTVSS VL: DVVMTQTPLSLPVSLGDQASISCRSSQSLVHRNGHTYLHWYLQKPGQSPKLLIYKVSNRFSGVPDRFSGSVSGTDFTLKISRVEGEDVGVYFCSQSTHVPYTFGGGTKLEIK
binds	–	–	802.1H3.2A4 (antibody, V domains shown, Mouse hybridoma monoclonal) VH: QVQLQQPGDELVKPGASVKLSCKASGYTFTSFWIHWVKQRPGQGLEWIGNIYPGSSSANYNEKFKSKATLTVDTSSSTAYMQLSSLTSDDSAVYYCARSSYRYSYYSWGQGTTLTVSS VL: DVVMTQTPLSLPVSLGDQASISCRSSQSIVHSNGNTFLEWYLQKPGQSPNLLIYKVSNRFSGVPDRFSGSGSGTDFTLKISRVEAEDLGVYYCFQGSHVPLSFGAGTKLELK
binds	–	–	802.4B6.2E11 (antibody, V domains shown, Mouse hybridoma monoclonal) VH: QVQLQQPDTELVKPGASVKLSCRASGYTFTSYWINWVKQRPGQGLEWIGNIYPGTSSTNYNEKFKSKATLTVDPSSSTAYMQLSSLTSDDSAVYYCSRSSYRYTYYSWGQGTTLTVSS VL: DVVMTQTPLSLPVSLGDQASISCRSSQSIVQSNGITYLEWYLKKPGQSPNLLIYKVSNRLSGVPDRFSGSGSGTDFTLKISRVEADDLGVYYCFQGSHVPLTFGAGTKLELK
binds	–	–	802.3D5.2G4 (antibody, V domains shown, Mouse hybridoma monoclonal) VH: EVKLEESGGGLVQPGGSMTLSCVASGFTFSNYWVNWVRQSPEKGLEWVAQIRLKSENYPTHYAESVKGRFTVSRDDSKSSVYLQMNNLRAEDTGIYYCTGRGYSNYAWGQGTTLTVSS VL: DIVMTQTPLSLPVSLGDQASISCRSSQSIVHSNGNTYLEWYLQKPGQSPKLLIYKVSNRFSGVPDRFSGSGSGTDFTLKISRVEAEDLGVYYCFQGSHFPWTFGGGTKLEIK
binds	binds	binds	802.4H12.2A9 (antibody, V domains shown, Mouse hybridoma monoclonal) VH: EVQLVESGGGLVKPGGSLKLSCAASGFTFSSYTMSWVRQTPEKTLEWVATISDGGRYTYYPDNVKGRFTISRDNANNNLYLQMSHLKSEDTAMYYCARGWLLRNFDFWGQGTTLTVSS VL: DVVMTQTPLSLPVSLGDQASISCRSSQSIVHSNGNTYLEWYLQKPGQSPKLLIYKVSNRFSGVPDRFSGSGSGTDFTLKISRVEAEDLGVYYCFQGSHVPLTFGAGTKLELK
binds	–	–	802.3E6.2H9 (antibody, V domains shown, Mouse hybridoma monoclonal) VH: QVQKQQPGAELVMPGASVKLSCKASGYTFTSYWMHWVMQRPGQGLEWIGDIDPSDSYTNYNQQFKGKATLTVDISSSSAYMQLSSLTFEDSAVYYCARARVDFDYWGRGTTLTVSS VL: EIVLTQSPALLAASPGDKVTITCSVSSSISSSTLHWYQQKSGTSPKPWIYGTSNLASGVPVRFSGSGSGTSYSLTISSMEAEDAATYYCQQWSGYPLTFGAGTKLELK
